Reference: publication doi:10.1101/2021.02.09.430442 (bioRxiv, 2021)

Experiments:
[1] = target: T1, Recombinant human Syntaxin6 (human, UniProt O43752 1-255); assay: pull-down
T1 sequence: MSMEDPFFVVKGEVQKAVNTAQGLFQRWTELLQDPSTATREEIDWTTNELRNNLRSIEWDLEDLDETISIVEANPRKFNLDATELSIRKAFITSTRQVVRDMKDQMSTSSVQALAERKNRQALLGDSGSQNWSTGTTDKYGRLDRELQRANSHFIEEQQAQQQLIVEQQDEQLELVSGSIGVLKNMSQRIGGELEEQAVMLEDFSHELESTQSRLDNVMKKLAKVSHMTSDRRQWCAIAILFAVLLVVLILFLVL

Recombinant human Vti1a = target: T2, Recombinant human Vti1a (human, UniProt Q96AJ9 1-217); assay: pull-down
T2 sequence (looked up): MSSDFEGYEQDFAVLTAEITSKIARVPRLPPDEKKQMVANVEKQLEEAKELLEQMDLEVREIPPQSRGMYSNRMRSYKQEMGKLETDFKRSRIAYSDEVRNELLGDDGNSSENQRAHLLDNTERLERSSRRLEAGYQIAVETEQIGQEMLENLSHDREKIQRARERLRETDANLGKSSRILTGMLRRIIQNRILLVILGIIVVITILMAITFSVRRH

B1: GST-VAMP4 (natural protein, human, UniProt O75379 1-141, looked up)
chain: MPPKFKRHLNDDDVTGSVKSERRNLLEDDSDEEEDFFLRGPSGPRFGPRNDKIKHVQNQVDEVIDVMQENITKVIERGERLDELQDKSESLSDNATAFSNRSKQLRRQMWWRGCKIKAIMALVAAILLLVIIILIVMKYRT
binding result [1]: binds
binding result (Recombinant human Vti1a): binds
